Reference: PMC5297747

Experiments:
[1] = target: bovine α-chymotrypsin (bovine)
[2] = target: bovine α-chymotrypsin (bovine); assay: progress curve of protease inhibition; 40 °C; buffer B (100 mM HEPES-NaOH pH 7.5, 200 mM NaCl, 10 mM CaCl2, 0.01% triton X-100, 0.1% glycerol); 1 mM Suc-AAPF-pNA or MeO-SucAAPV-pNA as substrate; various concentrations of Pnserpin; absorption at 410 nm; kass = kunc × (1 + [S]/KM)

## Pnserpin (from UniProt B1YBN4 1-393) (natural protein)
[1]
  stoichiometry of inhibition (SI), incubation at 20 °C; residual protease activity: 9.49
  stoichiometry of inhibition (SI), incubation at 30 °C; residual protease activity: 5.8
  stoichiometry of inhibition (SI), incubation at 40 °C; residual protease activity: 4.76
  stoichiometry of inhibition (SI), incubation at 50 °C; residual protease activity: 2.21
[2]
  kon: 24600 M⁻¹ s⁻¹
